Reference: the Human Domainome abundance scans (Beltran et al. 2025)
± gives the uncertainty stated by the source.

B1: Homeobox protein cut-like 1, residues 548 to 629; numbered along this chain, P39880 (parent)
chain: GEEMDTAEIARQVKEQLIKHNIGQRIFGHYVLGLSQGSVSEILARPKPWNKLTVRGKEPFHKMKQFLSDEQNILALRSIQGR

Variants of: B1
Experiment: abundance fitness (aPCA) (normalised: wild type 0, dead -1); higher = more abundant; growth selection in yeast, the domain comes from the species named
Conditions: Homo sapiens

| Variant | abundance fitness |
| --- | --- |
| GEEMDTAEIARQVKEQLIKHNIGQRIFGEYVLGLSQGSVSEILARPKPWNKLTVRGKEPFHKMKQFLSDEQNILALRSIQGR [H29E] | 0.06 ± 0.031 |
| GEEMDTAEIARQVKEQLIKHNIGQRIFGNYVLGLSQGSVSEILARPKPWNKLTVRGKEPFHKMKQFLSDEQNILALRSIQGR [H29N] | -0.012 ± 0.054 |
| GEEMDTAEIARQVKEQLIKHNIGQRIFGFYVLGLSQGSVSEILARPKPWNKLTVRGKEPFHKMKQFLSDEQNILALRSIQGR [H29F] | -0.15 ± 0.065 |
| GEEMDTAEIARQVKEQLIKHNIGQRIFGSYVLGLSQGSVSEILARPKPWNKLTVRGKEPFHKMKQFLSDEQNILALRSIQGR [H29S] | -0.081 ± 0.033 |
| GEEMDTAEIARQVKEQLIKHNIGQRIFGWYVLGLSQGSVSEILARPKPWNKLTVRGKEPFHKMKQFLSDEQNILALRSIQGR [H29W] | -0.102 ± 0.031 |
| GEEMDTAEIARQVKEQLIKHNIGQRIFGLYVLGLSQGSVSEILARPKPWNKLTVRGKEPFHKMKQFLSDEQNILALRSIQGR [H29L] | -0.1 ± 0.03 |
| GEEMDTAEIARQVKEQLIKHNIGQRIFGKYVLGLSQGSVSEILARPKPWNKLTVRGKEPFHKMKQFLSDEQNILALRSIQGR [H29K] | 0.022 ± 0.036 |
| GEEMDTAEIARQVKEQLIKHNIGQRIFGGYVLGLSQGSVSEILARPKPWNKLTVRGKEPFHKMKQFLSDEQNILALRSIQGR [H29G] | -0.357 ± 0.026 |
| GEEMDTAEIARQVKEQLIKHNIGQRIFGRYVLGLSQGSVSEILARPKPWNKLTVRGKEPFHKMKQFLSDEQNILALRSIQGR [H29R] | -0.051 ± 0.024 |
| GEEMDTAEIARQVKEQLIKHNIGQRIFGPYVLGLSQGSVSEILARPKPWNKLTVRGKEPFHKMKQFLSDEQNILALRSIQGR [H29P] | -0.621 ± 0.065 |
| GEEMDTAEIARQVKEQLIKHNIGQRIFGTYVLGLSQGSVSEILARPKPWNKLTVRGKEPFHKMKQFLSDEQNILALRSIQGR [H29T] | -0.022 ± 0.038 |
| GEEMDTAEIARQVKEQLIKHNIGQRIFNHYVLGLSQGSVSEILARPKPWNKLTVRGKEPFHKMKQFLSDEQNILALRSIQGR [G28N] | -0.259 ± 0.075 |
| GEEMDTAEIARQVKEQLIKHNIGQRIFTHYVLGLSQGSVSEILARPKPWNKLTVRGKEPFHKMKQFLSDEQNILALRSIQGR [G28T] | -0.47 ± 0.048 |
| GEEMDTAEIARQVKEQLIKHNIGQRIFIHYVLGLSQGSVSEILARPKPWNKLTVRGKEPFHKMKQFLSDEQNILALRSIQGR [G28I] | -0.233 ± 0.095 |
| GEEMDTAEIARQVKEQLIKHNIGQRIFAHYVLGLSQGSVSEILARPKPWNKLTVRGKEPFHKMKQFLSDEQNILALRSIQGR [G28A] | 0.018 ± 0.027 |
| GEEMDTAEIARQVKEQLIKHNIGQRIFYHYVLGLSQGSVSEILARPKPWNKLTVRGKEPFHKMKQFLSDEQNILALRSIQGR [G28Y] | -0.374 ± 0.1 |
| GEEMDTAEIARQVKEQLIKHNIGQRIFSHYVLGLSQGSVSEILARPKPWNKLTVRGKEPFHKMKQFLSDEQNILALRSIQGR [G28S] | -0.05 ± 0.033 |

| Variant | abundance fitness |
| --- | --- |
| GEEMDTAEIARQVKEQLIKHNIGQRIFDHYVLGLSQGSVSEILARPKPWNKLTVRGKEPFHKMKQFLSDEQNILALRSIQGR [G28D] | -0.349 ± 0.054 |
| GEEMDTAEIARQVKEQLIKHNIGQRIFHHYVLGLSQGSVSEILARPKPWNKLTVRGKEPFHKMKQFLSDEQNILALRSIQGR [G28H] | -0.485 ± 0.083 |
| GEEMDTAEIARQVKEQLIKHNIGQRIFCHYVLGLSQGSVSEILARPKPWNKLTVRGKEPFHKMKQFLSDEQNILALRSIQGR [G28C] | -0.223 ± 0.051 |
| GEEMDTAEIARQVKEQLIKHNIGQRIFWHYVLGLSQGSVSEILARPKPWNKLTVRGKEPFHKMKQFLSDEQNILALRSIQGR [G28W] | -0.764 ± 0.056 |
| GEEMDTAEIARQVKEQLIKHNIGQRIFPHYVLGLSQGSVSEILARPKPWNKLTVRGKEPFHKMKQFLSDEQNILALRSIQGR [G28P] | -0.726 ± 0.069 |
| GEEMDTAEIARQVKEQLIKHNIGQRIFKHYVLGLSQGSVSEILARPKPWNKLTVRGKEPFHKMKQFLSDEQNILALRSIQGR [G28K] | -0.745 ± 0.067 |
| GEEMDTAEIARQVKEQLIKHNIGQRIFEHYVLGLSQGSVSEILARPKPWNKLTVRGKEPFHKMKQFLSDEQNILALRSIQGR [G28E] | -0.188 ± 0.031 |
| GEEMDTAEIARQVKEQLIKHNIGQRIFFHYVLGLSQGSVSEILARPKPWNKLTVRGKEPFHKMKQFLSDEQNILALRSIQGR [G28F] | -0.329 ± 0.1 |
| GEEMDTAEIARQVKEQLIKHNIGQRIFRHYVLGLSQGSVSEILARPKPWNKLTVRGKEPFHKMKQFLSDEQNILALRSIQGR [G28R] | -0.52 ± 0.03 |
| GEEMDTAEIARQVKEQLIKHNIGQRIFMHYVLGLSQGSVSEILARPKPWNKLTVRGKEPFHKMKQFLSDEQNILALRSIQGR [G28M] | -0.241 ± 0.042 |
| GEEMDTAEIARQVKEQLIKHNIGQRIFQHYVLGLSQGSVSEILARPKPWNKLTVRGKEPFHKMKQFLSDEQNILALRSIQGR [G28Q] | -0.457 ± 0.044 |
| GEEMDTAEIARQVKEQLIKHNIGQRIFVHYVLGLSQGSVSEILARPKPWNKLTVRGKEPFHKMKQFLSDEQNILALRSIQGR [G28V] | -0.452 ± 0.034 |
| GEEMDTAEIARQVKEQLIKHNIGQRVFGHYVLGLSQGSVSEILARPKPWNKLTVRGKEPFHKMKQFLSDEQNILALRSIQGR [I26V] | 0.034 ± 0.026 |
| GEEMDTAEIARQVKEQLIKHNIGQRWFGHYVLGLSQGSVSEILARPKPWNKLTVRGKEPFHKMKQFLSDEQNILALRSIQGR [I26W] | -0.083 ± 0.028 |
| GEEMDTAEIARQVKEQLIKHNIGQRYFGHYVLGLSQGSVSEILARPKPWNKLTVRGKEPFHKMKQFLSDEQNILALRSIQGR [I26Y] | -0.107 ± 0.065 |
| GEEMDTAEIARQVKEQLIKHNIGQRSFGHYVLGLSQGSVSEILARPKPWNKLTVRGKEPFHKMKQFLSDEQNILALRSIQGR [I26S] | -0.14 ± 0.033 |
| GEEMDTAEIARQVKEQLIKHNIGQRTFGHYVLGLSQGSVSEILARPKPWNKLTVRGKEPFHKMKQFLSDEQNILALRSIQGR [I26T] | 0.009 ± 0.037 |
